Columns and labels:
Settings in all cases: both partners purified
[1] = target: T1, His-tagged MDM2 (recombinant, bacteria-expressed) (UniProt Q00987 1-491); assay: MST; fluorescence-labeled MDM2 (target, 5 nM, RED-NHS) constant, non-labeled ligand titrated to 500 nM; 50 mM Tris-HCl pH 8.0, 50 mM NaCl, 80 mM KCl, 0.05% Tween-20; Monolith NT.115 Pico
T1 construct: MDM2, E3 ubiquitin-protein ligase; His-tagged construct purchased from Genscript; also called His-MDM2; MDM2 recombinant protein; source: E. coli BL-21(DE3), purified (Ni-NTA-agarose)
T1 sequence (Q00987 whole entry): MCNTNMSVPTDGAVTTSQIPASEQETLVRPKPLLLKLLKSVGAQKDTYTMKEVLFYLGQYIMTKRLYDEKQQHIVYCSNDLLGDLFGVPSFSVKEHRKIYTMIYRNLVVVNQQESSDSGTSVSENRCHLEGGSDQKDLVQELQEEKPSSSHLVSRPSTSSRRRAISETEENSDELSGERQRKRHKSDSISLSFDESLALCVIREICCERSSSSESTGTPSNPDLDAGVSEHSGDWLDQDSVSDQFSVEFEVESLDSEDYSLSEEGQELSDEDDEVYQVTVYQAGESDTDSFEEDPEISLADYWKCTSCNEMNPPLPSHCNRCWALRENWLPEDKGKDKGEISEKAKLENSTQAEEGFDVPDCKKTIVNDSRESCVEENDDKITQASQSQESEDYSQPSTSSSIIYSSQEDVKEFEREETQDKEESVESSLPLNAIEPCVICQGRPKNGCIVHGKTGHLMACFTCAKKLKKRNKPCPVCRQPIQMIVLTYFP

[2] = target: T1, His-tagged MDM2 (recombinant, …); assay: MST; fluorescence-labeled αBC or HSP27 (target, 5 nM, RED-NHS) constant, non-labeled His-/FLAG-MDM2 or His-/FLAG-p53 titrated to 500 nM; 50 mM Tris-HCl pH 8.0, 50 mM NaCl, 80 mM KCl, 0.05% Tween-20
[3] = target: T2, FLAG-tagged MDM2 (mammalian-expressed, PIPn-linked) (UniProt Q00987 1-491, PIP2 stably associated (PIPn-linked), site not told); assay: as above
T2 construct: MDM2; cDNA purchased from OriGene; Its chemistry and site are unknown; also called FLAG-MDM2; PIPn-linked MDM2; source: HEK293FT, purified (FLAG Purification Kit), dialysed into PBS
T2 sequence (Q00987 whole entry): as above

- Kd [1]: 58 ± 5 nM
- Kd [2]: 58 ± 5 nM
- Kd [3]: 7 ± 1 nM
B1: αB-crystallin (recombinant, His-tagged) (natural protein, UniProt P02511 1-175, looked up)
chain: MDIAIHHPWIRRPFFPFHSPSRLFDQFFGEHLLESDLFPTSTSLSPFYLRPPSFLRAPSWFDTGLSEMRLEKDRFSVNLDVKHFSPEELKVKVLGDVIEVHGKHEERQDEHGFISREFHRKYRIPADVDPLTITSSLSSDGVLTVNGPRKQVSGPERTIPITREEKPAVTAAPKK
notes: αB-crystallin; His-tagged construct purchased from Genscript; source: E. coli BL-21(DE3), purified (Ni-NTA-agarose)

From article PMC12409426, “Regulation of the MDM2-p53 nexus by a nuclear phosphoinositide and small heat shock protein complex” (The Journal of Biological Chemistry, 2025)
